# Test results published in PMC7356819, “Lanthanide-Dependent Methanol and Formaldehyde Oxidation in Methylobacterium aquaticum Strain 22A” (Microorganisms, 2020).
# B1: XoxF1-His (XoxF1, Ln3+-dependent methanol dehydrogenase) (Methylobacterium aquaticum) (protein)
# chain: NEDVLKRTANPAEQVLQTVDYANTRYSKLDQINAGNVNKLQVAWTFSTGVLRGHEGSPLVVGDVMYVHTPFPNIVYALDLNQDGKILWKYEPKQDPNVIPVMCCDTVNRGLAYADGAIFLHQADTTIVSLDAKSGKVNWSVQNGDPKIGETNTATVLPVKDKLIVGIAGAEYGIRGHITAYDLKTGKQAWRAYNLGPDAEMKIDPEKTTELGKPVGKDSSIKTWEGDQWKTGGASTWGWYSYDPKLNLVYYGTGNPSTWNPKQRPGDNKWSMTIFARDADTGVAKWVYQMTPHDEWDYDGINEMILTDQKIGDKERPLLTHFDRNGFGYTLDRATGELLVAEKYDPAVNWATKVDQDKSSKTYGRPLVVAKYSTDQNGEDTNSKGICPAALGSKDQQPAAYSPKTNLFYVPTNHVCMDYEPFRVSYTPGQPYVGATLSMYPAPNSHGGMGNFIAWDGTAGKIKWSNPEQFSVWSGALATAGDVVFYGTLEGYLKAVDSKTGKELYKFKTPSGIIGNVMTFQHKGKQNIAVLSGVGGWAGIGLAAGLTDPNAGLGAVGGYAALSSYTNLGGQLTVFNLPN
# notes: His-tagged (primer-encoded at 3' end, C-terminal), tag kept; Ni-NTA; ca. 60 kDa monomer
# Assays:
# [1] = molecular target: T1, Hgd (S-hydroxymethyl glutathione dehydrogenase) (Methylobacterium aquaticum, UniProt A0A0C6FVV4); test: NADH formation at […] nm in cell-free extract, hgd deletion mutant as control; format: biochemical; conditions: S-hydroxymethylglutathione formed in situ from formaldehyde and glutathione; NAD, sodium phosphate pH 7, premix at 25 °C
# T1 construct: gene adhC; native enzyme in cell-free extract of strain 22A; activity absent in the hgd deletion mutant
# T1 sequence (A0A0C6FVV4 entry or part of it): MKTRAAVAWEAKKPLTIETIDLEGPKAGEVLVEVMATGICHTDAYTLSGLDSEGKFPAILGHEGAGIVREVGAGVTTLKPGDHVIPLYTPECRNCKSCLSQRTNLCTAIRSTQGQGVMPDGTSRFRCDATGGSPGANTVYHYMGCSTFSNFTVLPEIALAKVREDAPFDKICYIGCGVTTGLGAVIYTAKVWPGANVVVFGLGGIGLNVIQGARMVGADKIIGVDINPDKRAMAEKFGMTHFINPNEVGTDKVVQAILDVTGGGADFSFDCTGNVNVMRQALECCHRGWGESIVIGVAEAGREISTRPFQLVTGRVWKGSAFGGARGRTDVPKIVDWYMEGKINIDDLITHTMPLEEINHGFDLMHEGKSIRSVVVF
# purified protein [2] = substrate: C=O; test: purified protein; format: biochemical, Methylobacterium aquaticum; conditions: PMS and DCPIP as electron acceptors, ammonium chloride, La3+-loaded enzyme (0.58 La per monomer), Tris-HCl pH 9.0, 30 °C, formaldehyde prepared from autoclaved paraformaldehyde
# purified protein [3] = substrate: CO; test: purified protein; format: biochemical, Methylobacterium aquaticum; conditions: PMS and DCPIP as electron acceptors, ammonium chloride, La3+-loaded enzyme (0.58 La per monomer), Tris-HCl pH 9.0, 30 °C
Molecule,"NADH formation at 340 nm in cell-free extract, hgd deletion mutant as control [1]",Km (purified protein [2]),Km (purified protein [3])
N[C@@H](CCC(=O)N[C@@H](CSCO)C(=O)NCC(=O)O)C(=O)O [S-hydroxymethyl glutathione],hgd indeed encodes S-hydroxymethylglutathione dehydrogenase,–,–
B1,–,340 µM,30 µM
